# Reference: patent US20180155413A1 (AstraZeneca / MedImmune, published 2018)
# Like-named read-outs stand apart in the source and are kept apart here.
# B1: FBC39 IgG (antibody, V domains shown)
# VH: EVQLVVSGGGLVKPGGSLRLSCAASGLSFLNAWMSWVRQAPGKGLEWVGRIKSNTDGGTTDYAAPVKGRFSISRDDSKNMLFLHMSSLRTEDTAVYYCATDGPYSDDFRSGYAARYRYFGMDVWGQGTTVTVSS
# VL: DIQMTQSPSSVSASVGDRVTITCRASQDISTWLAWYQQKPGKAPKLLIYAASSLQSGVPSRFSGSGSGTDFTLTISSLQPEDFATYFCQQANSFPPTFGQGTKLEIK
# Legend:
# Experiment in all cases: cell-based or functional assay
# [1] = biological target: HA of B/Ohio/1/2005 (victoria) (influenza B virus)
# [2] = biological target: HA of ca B/Georgia/02/98 (yamagata) (influenza B virus)
# [3] = biological target: HA of B/Phuket/3073/2013 (yamagata) (influenza B virus)
# [4] = biological target: HA of ca B/Beijing/243/97 (victoria) (influenza B virus)
# [5] = biological target: HA of B/Yamagata/16/88 (yamagata) (influenza B virus)
# [6] = biological target: HA of B/Wisconsin/5/2013 (victoria) (influenza B virus)
# [7] = biological target: HA of B/Malaysia/2506/2004 (victoria) (influenza B virus)
# [8] = biological target: HA of B/Wisconsin/1/2010 (yamagata) (influenza B virus)
# [9] = biological target: HA of ca B/Ann Arbor/1/66 (influenza B virus)
# [10] = biological target: HA of B/Hong Kong/330/2001 (victoria) (influenza B virus)
# [11] = biological target: HA of ca B/Victoria/504/2000 (yamagata) (influenza B virus)
# HA of B/Hong Kong/5/72 [12] = biological target: HA of B/Hong Kong/5/72 (influenza B virus)
# [13] = biological target: HA of B/Texas/2/2013 (victoria) (influenza B virus)
# [14] = biological target: HA of ca B/Brisbane/60/2008 (victoria) (influenza B virus)
# [15] = biological target: HA of B/Sichuan/379/99 (yamagata) (influenza B virus)
# [16] = biological target: HA of B/New Jersey/01/2012 (victoria) (influenza B virus)
# [17] = biological target: HA of B/Arizona/8/2013 (yamagata) (influenza B virus)
# [18] = biological target: HA of B/Florida/4/2006 (yamagata) (influenza B virus)
# [19] = biological target: HA of B/Nevada/3/2011 (victoria) (influenza B virus)
# HA of B/Lee/40 [20] = biological target: T1, HA of B/Lee/40 (influenza B virus, UniProt P03460 16-584)
# T1 sequence (P03460 16-584 limits assumed): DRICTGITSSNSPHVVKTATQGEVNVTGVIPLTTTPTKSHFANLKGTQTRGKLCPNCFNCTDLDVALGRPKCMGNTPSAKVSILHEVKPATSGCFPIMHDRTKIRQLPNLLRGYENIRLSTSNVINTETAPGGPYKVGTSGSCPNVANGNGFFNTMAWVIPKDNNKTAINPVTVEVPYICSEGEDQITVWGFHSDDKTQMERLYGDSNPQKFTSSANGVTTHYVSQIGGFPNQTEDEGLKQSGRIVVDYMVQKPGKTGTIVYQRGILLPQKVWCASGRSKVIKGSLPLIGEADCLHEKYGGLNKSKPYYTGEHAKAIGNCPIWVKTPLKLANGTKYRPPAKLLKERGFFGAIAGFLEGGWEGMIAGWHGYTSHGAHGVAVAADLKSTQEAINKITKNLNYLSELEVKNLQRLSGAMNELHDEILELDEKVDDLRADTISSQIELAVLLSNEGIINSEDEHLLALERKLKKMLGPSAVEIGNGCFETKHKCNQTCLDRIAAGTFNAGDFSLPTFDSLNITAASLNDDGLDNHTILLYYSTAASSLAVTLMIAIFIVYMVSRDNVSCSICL
# [21] = biological target: HA of B/Ohio/1/2005 (victoria) (influenza B virus); remark: listed apart in the source
# [22] = biological target: HA of ca B/Georgia/02/98 (yamagata) (influenza B virus); remark: listed apart in the source
# [23] = biological target: HA of ca B/Beijing/243/97 (victoria) (influenza B virus); remark: listed apart in the source
# [24] = biological target: HA of B/Yamagata/16/88 (yamagata) (influenza B virus); remark: listed apart in the source
# [25] = biological target: HA of B/Yamanashi/166/98 (yamagata) (influenza B virus)
# [26] = biological target: HA of B/Malaysia/2506/2004 (victoria) (influenza B virus); remark: listed apart in the source
# [27] = biological target: HA of ca B/Ann Arbor/1/66 (influenza B virus); remark: listed apart in the source
# [28] = biological target: HA of B/Hong Kong/330/2001 (victoria) (influenza B virus); remark: listed apart in the source
# [29] = biological target: HA of ca B/Victoria/504/2000 (yamagata) (influenza B virus); remark: listed apart in the source
# HA of B/Hong Kong/5/72 [30] = biological target: HA of B/Hong Kong/5/72 (influenza B virus); remark: listed apart in the source
# [31] = biological target: HA of B/Shanghai/361/02 (yamagata) (influenza B virus)
# [32] = biological target: HA of ca B/Brisbane/60/2008 (victoria) (influenza B virus); remark: listed apart in the source
# [33] = biological target: HA of B/Sichuan/379/99 (yamagata) (influenza B virus); remark: listed apart in the source
# [34] = biological target: HA of ca B/Johannesburg/5/99 (yamagata) (influenza B virus)
# [35] = biological target: HA of B/Florida/4/2006 (yamagata) (influenza B virus); remark: listed apart in the source
# HA of B/Lee/40 [36] = biological target: T1, HA of B/Lee/40; remark: listed apart in the source
# [37] = biological target: HA of ca B/Ann Arbor/2/94 (yamagata) (influenza B virus)
# [38] = biological target: HA of B/Malaysia/2506/2004 (victoria) (influenza B virus); remark: listed apart in the source
# [39] = biological target: HA of B/Sichuan/379/99 (yamagata) (influenza B virus); remark: listed apart in the source
# [40] = biological target: HA of B/Ohio/1/2005 (victoria) (influenza B virus); remark: listed apart in the source
# [41] = biological target: HA of A/Shan dong/9/93 (H3N2) (influenza A virus)
# [42] = biological target: HA of ca B/Beijing/243/97 (victoria) (influenza B virus); remark: listed apart in the source
# [43] = biological target: HA of A/California/07/2009 (H1N1) (influenza A virus)
# [44] = biological target: HA of B/Malaysia/2506/2004 (victoria) (influenza B virus); remark: listed apart in the source
# [45] = biological target: HA of A/Beijing/262/95 (H1N1) (influenza A virus)
# [46] = biological target: HA of B/Hong Kong/330/2001 (victoria) (influenza B virus); remark: listed apart in the source
# [47] = biological target: HA of A/Victoria/3/75 (H3N2) (influenza A virus)
# [48] = biological target: HA of A/Hong Kong/8/68 (H3N2) (influenza A virus)
# [49] = biological target: HA of A/Wilson Smith N/33 (H1N1) (influenza A virus, UniProt P03454 18-565)
# Chain of HA of A/Wilson Smith N/33 (H1N1) (P03454 18-565 limits assumed): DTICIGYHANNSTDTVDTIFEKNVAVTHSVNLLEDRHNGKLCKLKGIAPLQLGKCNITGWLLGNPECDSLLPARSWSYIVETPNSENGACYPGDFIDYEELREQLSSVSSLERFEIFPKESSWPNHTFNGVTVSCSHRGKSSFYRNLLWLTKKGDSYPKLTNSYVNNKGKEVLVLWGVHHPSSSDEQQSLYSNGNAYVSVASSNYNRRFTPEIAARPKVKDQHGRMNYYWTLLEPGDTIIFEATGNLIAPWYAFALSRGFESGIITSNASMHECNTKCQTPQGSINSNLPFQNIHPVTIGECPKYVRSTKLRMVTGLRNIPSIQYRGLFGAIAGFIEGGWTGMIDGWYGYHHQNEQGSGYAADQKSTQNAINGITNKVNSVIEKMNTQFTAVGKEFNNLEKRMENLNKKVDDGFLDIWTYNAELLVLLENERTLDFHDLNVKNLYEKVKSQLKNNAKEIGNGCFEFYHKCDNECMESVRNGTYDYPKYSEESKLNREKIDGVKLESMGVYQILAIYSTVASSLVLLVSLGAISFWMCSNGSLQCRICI
# [50] = biological target: HA of B/Sichuan/379/99 (yamagata) (influenza B virus); remark: listed apart in the source
# [51] = biological target: HA of B/Florida/4/2006 (yamagata) (influenza B virus); remark: listed apart in the source
# [52] = biological target: HA of ca A/Panama/2007/99 (H3N2) (influenza A virus)
binder,measurement,setting,value
B1,Neutralization (IC50),[1],0.5 nM
same,Neutralization (IC50),[2],0.1 nM
same,Neutralization (IC50),[3],0.2 nM
same,Neutralization (IC50),[4],0.9 nM
same,Neutralization (IC50),[5],0.1 nM
same,Neutralization (IC50),[6],0.5 nM
same,Neutralization (IC50),[7],1.2 nM
same,Neutralization (IC50),[8],0.1 nM
same,Neutralization (IC50),[9],0.6 nM
same,Neutralization (IC50),[10],1.8 nM
same,Neutralization (IC50),[11],0.2 nM
same,Neutralization (IC50),HA of B/Hong Kong/5/72 [12],0.4 nM
same,Neutralization (IC50),[13],0.4 nM
same,Neutralization (IC50),[14],1.5 nM
same,Neutralization (IC50),[15],0.3 nM
same,Neutralization (IC50),[16],0.7 nM
same,Neutralization (IC50),[17],0.1 nM
same,Neutralization (IC50),[18],0.2 nM
same,Neutralization (IC50),[19],1.2 nM
same,Neutralization (IC50),HA of B/Lee/40 [20],0.1 nM
same,Hemagglutination Inhibition Titer,[21],24 nM
same,Hemagglutination Inhibition Titer,[22],16 nM
same,Hemagglutination Inhibition Titer,[23],14 nM
same,Hemagglutination Inhibition Titer,[24],11 nM
same,Hemagglutination Inhibition Titer,[25],13 nM
same,Hemagglutination Inhibition Titer,[26],20 nM
same,Hemagglutination Inhibition Titer,[27],6 nM
same,Hemagglutination Inhibition Titer,[28],16 nM
same,Hemagglutination Inhibition Titer,[29],16 nM
same,Hemagglutination Inhibition Titer,HA of B/Hong Kong/5/72 [30],8 nM
same,Hemagglutination Inhibition Titer,[31],16 nM
same,Hemagglutination Inhibition Titer,[32],20 nM
same,Hemagglutination Inhibition Titer,[33],10 nM
same,Hemagglutination Inhibition Titer,[34],18 nM
same,Hemagglutination Inhibition Titer,[35],7 nM
same,Hemagglutination Inhibition Titer,HA of B/Lee/40 [36],5 nM
same,Hemagglutination Inhibition Titer,[37],6 nM
same,"ADCC: NK cell killing of infected A549 cells (LDH release), IC50",[38],1.45 nM
same,"ADCC: NK cell killing of infected A549 cells (LDH release), IC50",[39],0.85 nM
same,Neutralization (IC50),[40],0.6 nM
same,Neutralization (IC50),[41],> 1000 nM
same,Neutralization (IC50),[42],0.4 nM
same,Neutralization (IC50),[43],> 1000 nM
same,Neutralization (IC50),[44],1 nM
same,Neutralization (IC50),[45],> 1000 nM
same,Neutralization (IC50),[46],1 nM
same,Neutralization (IC50),[47],> 1000 nM
same,Neutralization (IC50),[48],> 1000 nM
same,Neutralization (IC50),[49],> 1000 nM
same,Neutralization (IC50),[50],0.2 nM
same,Neutralization (IC50),[51],0.4 nM
same,Neutralization (IC50),[52],> 1000 nM
